Measured values as given in publication doi:10.1101/2023.03.06.531322.

Target: TafA (HAH_0240), mature major subunit of tat-fimbriae (tafi) of Haloarcula hispanica (Haloarcula hispanica)
Experiment: co-sedimentation

Row | Substance | molar ratio in filament preparations (molecules per 100 molecules of TafA)
1 | TafC (HAH_0242), minor component of tafi of Haloarcula hispanica (natural protein) | 1
2 | TafE (HAH_0239), minor component of tafi of Haloarcula hispanica (natural protein) | 5
